Each block holds one binder with its values, some of them ahead of it.
Target: histones
Assay: ELISA

Kd: 6.6 nM
B1: mIMMU-H4 (antibody, V domains shown)
VH: QVQLQQSGAELVRPGASVKLSCTASGFNIKDDYLHWVKQRPEQGLEWIGWIDPENGDTEYASKFQGKATITADTSSNTAYLQLSSLTSEDTAVYYCSSPLVHLRTFAYWGQGTLVTVS
VL: DIQLTQSPASLAVSLGQRATISCRASESVDSYDNSLHWFQQKPGQPPKLLIYLASNLESGVPARFSGSGSRTDFTLTIDPVEADDAATYYCQQNNEDPWTFGGGTKLEIKR

Kd: 0.96 nM
B2: cIMMU-H4 (antibody, V domains shown)
VH: QVQLQQSGAELVRPGASVKLSCTASGFNIKDDYLHWVKQRPEQGLEWIGWIDPENGDTEYASKFQGKATITADTSSNTAYLQLSSLTSEDTAVYYCSSPLVHLRTFAYWGQGTLVTVSA
VL: B1 VL
